Source: article PMC12274614, “Scavenger receptor CD163 multimerises to allow uptake of diverse ligands” (Nature Communications, 2025)

Columns and labels:
[1] = target: haptoglobin Hp(1-1) (human) (UniProt P00738); assay: MST; Monolith NT.115, 25 °C, 20 mM HEPES pH 7.5, 150 mM NaCl, […] CaCl2; Alexa Fluor 647-labelled Hb (200 nM) or Hp(1-1) (500 nM or 1.0 μM) held constant, CD163 ectodomain (WT or R809T-BAP) titrated
[2] = target: CD163 ectodomain (CD163-WT) (human) (UniProt Q86VB7)
[3] = target: T1, CD163-WT ectodomain (C-tag, without BAP tag) (human, UniProt Q86VB7-1 46-1050); assay: MST; Monolith NT.115, 25 °C; 20 mM HEPES pH 7.5, 150 mM NaCl, 2.5 mM CaCl2; fluorescent Hb (200 nM) or Hp(1-1) (0.50 µM) mixed with two-fold dilution series of CD163 (WT from 24.4 or 37.9 µM, R809T from 41.5 µM); fit to the combined triplicate; details: both partners purified
T1 construct: Cloned into pHLsec with a C-terminal GAA linker and a C-tag; Dimers and trimers in the cryo-EM structures; also called WT CD163; CD163A

CD163 ectodomain (CD163-WT) (from UniProt Q86VB7-1 46-1050) (domain or fragment)
Kd [1]: 27 µM

Hp(2-2)Hb (haptoglobin isoform 2 - haemoglobin complex) (from UniProt P00738-1 19-160; P00738-1 162-406)
IC50 of competition for the uptake of 50 nM labelled Hp(2-2)Hb into HEK293 cells expressing full-length CD163-GFP, FACS [2]: 0.04 µM
uptake of fluorescently labelled Hp(2-2)Hb (0-600 nM) into HEK293 cells with or without full-length CD163-GFP (residues 46-1156), FACS [2]: 10 fold

B1: Haptoglobin Hp(1-1), fluorescently labelled (natural protein)
chain 1: VDSGNDVTDIADDGCPKPPEIAHGYVEHSVRYQCKNYYKLRTEGDGVYTLNNEKQWINKAVGDKLPECEAVCGKPKNPANPVQ
chain 2: ILGGHLDAKGSFPWQAKMVSHHNLTTGATLINEQWLLTTAKNLFLNHSENATAKDIAPTLTLYVGKKQLVEIEKVVLHPNYSQVDIGLIKLKQKVSVNERVMPICLPSKDYAEVGRVGYVSGWGRNANFKFTDHLKYVMLPVADQDQCIRHYEGSTVPEKKTPKSPVGVQPILNEHTFCAGMSKYQEDTCYGDAGSAFAVHDLEEDTWYATGILSFDKSCAVAEYGVYVKVTSIQDWVQKTIAEN
modifications: Alexa Fluor 647 (NHS ester labelling of the protein; sites not stated) | Alexa Fluor 647 (NHS ester labelling of the protein; sites not stated)
Kd [3]: 26.6 µM
